In US8697369B2, “Method for screening a test substance for activating a receptor associated with FGF 21 activity” (National Institute of Advanced Industrial Science and …, priority 2007, dated 2014):
“Also recorded” adds a separate entry of the source. Blank lines part the entries; values can stand above or below the molecule they belong to.

Tests used:
[1] = target: T1, FGFR1c/betaKlotho-expressing BaF3 cells (Mus musculus, UniProt P16092+Q99N32); experiment: DNA synthesis (thymidine incorporation) in FGFR1c/betaKlotho-expressing BaF3 cells; format: cell-based; conditions: BaF3 cells expressing FGFR1c and betaKlotho; presence or absence of heparin
T1 construct: the entire-length cDNA of mouse FGFR1c had been cloned; the entire-length cDNA of mouse betaKlotho was cloned into an animal cell expression vector; expressed in transfected cells; host or cells: BaF3 (mouse pro-B) cells
T1 sequence (P16092 22-822): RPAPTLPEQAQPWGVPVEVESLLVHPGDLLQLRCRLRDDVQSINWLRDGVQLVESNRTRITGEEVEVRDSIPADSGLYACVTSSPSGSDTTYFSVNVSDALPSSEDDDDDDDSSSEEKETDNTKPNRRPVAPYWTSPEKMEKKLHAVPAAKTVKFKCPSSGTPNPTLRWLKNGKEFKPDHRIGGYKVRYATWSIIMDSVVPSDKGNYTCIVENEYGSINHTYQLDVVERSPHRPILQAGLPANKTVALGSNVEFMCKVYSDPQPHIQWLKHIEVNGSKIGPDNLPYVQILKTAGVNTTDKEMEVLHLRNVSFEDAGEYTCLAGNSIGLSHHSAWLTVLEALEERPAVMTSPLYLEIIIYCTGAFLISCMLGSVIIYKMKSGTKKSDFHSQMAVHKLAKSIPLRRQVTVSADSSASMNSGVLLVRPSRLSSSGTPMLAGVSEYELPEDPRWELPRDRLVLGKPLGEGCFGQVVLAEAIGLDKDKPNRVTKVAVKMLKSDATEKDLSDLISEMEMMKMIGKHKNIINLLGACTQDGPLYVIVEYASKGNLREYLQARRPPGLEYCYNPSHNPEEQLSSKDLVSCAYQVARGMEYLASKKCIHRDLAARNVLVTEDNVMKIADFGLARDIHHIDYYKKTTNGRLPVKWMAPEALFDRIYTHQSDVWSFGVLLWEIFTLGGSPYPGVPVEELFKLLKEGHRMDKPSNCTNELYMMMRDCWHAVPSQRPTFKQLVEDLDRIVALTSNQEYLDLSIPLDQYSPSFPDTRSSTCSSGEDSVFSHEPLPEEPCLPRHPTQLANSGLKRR
T1 sequence (Q99N32 whole entry): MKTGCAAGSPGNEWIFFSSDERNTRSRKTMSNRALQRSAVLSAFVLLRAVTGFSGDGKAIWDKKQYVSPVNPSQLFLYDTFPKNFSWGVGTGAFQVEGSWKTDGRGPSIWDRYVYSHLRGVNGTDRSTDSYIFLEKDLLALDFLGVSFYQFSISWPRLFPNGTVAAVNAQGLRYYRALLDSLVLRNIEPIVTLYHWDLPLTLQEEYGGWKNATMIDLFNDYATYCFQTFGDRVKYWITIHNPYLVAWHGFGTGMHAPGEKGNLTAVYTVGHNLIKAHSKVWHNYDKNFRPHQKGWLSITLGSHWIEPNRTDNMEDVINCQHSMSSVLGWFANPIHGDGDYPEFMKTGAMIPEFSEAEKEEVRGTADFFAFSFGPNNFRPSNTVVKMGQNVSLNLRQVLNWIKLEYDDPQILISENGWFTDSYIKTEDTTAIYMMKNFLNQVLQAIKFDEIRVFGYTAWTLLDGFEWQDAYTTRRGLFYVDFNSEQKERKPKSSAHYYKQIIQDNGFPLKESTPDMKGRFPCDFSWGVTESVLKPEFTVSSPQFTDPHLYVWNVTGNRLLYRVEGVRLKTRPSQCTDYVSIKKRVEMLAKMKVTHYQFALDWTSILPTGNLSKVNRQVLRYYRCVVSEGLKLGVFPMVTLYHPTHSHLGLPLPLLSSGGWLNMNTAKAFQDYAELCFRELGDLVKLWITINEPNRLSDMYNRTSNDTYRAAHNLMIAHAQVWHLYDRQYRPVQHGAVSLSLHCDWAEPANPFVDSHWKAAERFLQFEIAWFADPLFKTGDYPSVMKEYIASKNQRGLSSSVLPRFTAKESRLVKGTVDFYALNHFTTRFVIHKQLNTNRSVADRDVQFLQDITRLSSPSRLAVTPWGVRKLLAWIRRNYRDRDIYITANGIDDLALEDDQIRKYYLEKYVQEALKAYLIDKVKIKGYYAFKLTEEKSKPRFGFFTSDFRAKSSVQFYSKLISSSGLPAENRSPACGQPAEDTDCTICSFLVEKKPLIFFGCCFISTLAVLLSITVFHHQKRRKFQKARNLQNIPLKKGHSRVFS
Method: (§1) A commonly used measurement method is a cell growth stimulating activity measurement method described in Ornitz, D. M., Xu, J., Colvin, J. S., McEwen, D. G., MacArthur, C. A., Coulier, F., Gao, G. and Goldfarb, M. (1996) Receptor specificity of the fibroblast growth factor family. J Biol Chem, 271, 15292-15297. The summary thereof is as follows. FGF used as a measurement target is added to a culture solution containing a cultured cell having an FGF receptor on the surface thereof, and the obtained mixture is cultured for a certain period of time. Thereafter, a labeled thymidine is added to the culture solution, followed by further culture for a certain period of time. By measuring the amount of the labeled thymidine incorporated into polymeric DNA during the culture, the degree of FGF to activate DNA synthesis is evaluated. (In the present invention as well, this method was adopted when the activity of FGF21 was measured in Examples 4, 5, 6, 8, 9, and 10.)
FGFR1c-expressing BaF3 cells and FGFR1c- and betaKlotho-expressing BaF3 cells were prepared as follows. In the case of FGFR1c-expressing BaF3 cells, an animal cell expression vector into which the entire-length cDNA of mouse FGFR1c had been cloned (described in Ornitz, D. M., Xu, J., Colvin, J. S., McEwen, D. G., MacArthur, C. A., Coulier, F., Gao, G. and Goldfarb, M. (1996) Receptor specificity of the fibroblast growth factor family. J Biol Chem, 271, 15292-15297.) was introduced into BaF3 cells by an electroporation method. The cells were then cultured in the presence of G418 for approximately 2 weeks, so as to obtain drug-resistant clones. Thereafter, such clones were obtained as those capable of growing as a result of FGF1 stimulation. In the case of both FGFR1c- and betaKlotho-expressing BaF3 cells, the entire-length cDNA of mouse betaKlotho was cloned into an animal cell expression vector, and it was then introduced into the FGFR1c-expressing BaF3 cells. The cells were then cultured in the presence of Puromycin and G418 for approximately 2 weeks, so as to obtain drug-resistant clones. In the case of only betaKlotho-expressing BaF3 cells, a betaKlotho-expressing vector was introduced into BaF3 cells, and Puromycin-resistant clones were then obtained. The BaF3 cells, into which the aforementioned genes had been each introduced, were maintained in an RPMI1640 medium containing 10% FBS and interleukin 3 (IL3, supplied by adding a 5% condition medium of WEHI-3 cells). For the growth stimulation experiment, the cells were washed with an RPMI1640 medium, and they were then suspended in an RPMI1640 medium containing 10% FBS, followed by inoculating the suspension on a culture plate. Thereafter, the resultant cells were used.
Immediately after inoculation, BaF3 cells that had expressed each clone and only FGFR1c were stimulated by addition of FGF21 (open bar) or PBS (filled bar) used as a control in the presence of heparin, and they were then cultured for 42 hours. Thereafter, tritium-labeled thymidine was added to the culture solution, and the culture was further continued for 6 hours. Thereafter, the amount of thymidine incorporated into the cells was measured, so as to evaluate DNA synthesis. A DNA synthesis value obtained when the cells were not stimulated with FGF21 was defined as 1, and the ratio of a DNA synthesis value obtained by stimulating with FGF21 to the aforementioned DNA synthesis value was expressed using magnification. […]

[2] = system: FGFR3c/betaKlotho-expressing BaF3 cells; experiment: DNA synthesis (thymidine incorporation) in FGFR3c/betaKlotho-expressing BaF3 cells; format: cell-based, mouse; conditions: BaF3 cells expressing FGFR3c and betaKlotho
Chain of FGFR3c/betaKlotho-expressing BaF3 cells (Q61851 21-369 limits assumed): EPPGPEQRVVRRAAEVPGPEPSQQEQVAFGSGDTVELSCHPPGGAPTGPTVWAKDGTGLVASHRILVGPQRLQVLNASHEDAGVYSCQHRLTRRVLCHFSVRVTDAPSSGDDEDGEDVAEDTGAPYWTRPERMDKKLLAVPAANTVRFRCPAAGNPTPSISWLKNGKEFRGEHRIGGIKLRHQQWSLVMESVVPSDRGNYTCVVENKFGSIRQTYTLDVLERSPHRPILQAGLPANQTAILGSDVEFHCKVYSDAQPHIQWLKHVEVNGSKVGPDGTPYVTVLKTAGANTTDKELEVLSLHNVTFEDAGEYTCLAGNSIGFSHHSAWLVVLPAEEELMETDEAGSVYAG
Chain of FGFR3c/betaKlotho-expressing BaF3 cells (Q99N32 whole entry, further chain): as the sequence (Q99N32 whole entry) above
Method: as §1
(§2) Whether other receptor molecules can also act as such FGF receptors was examined. An expression vector containing each FGFR (FGFR1b, R1c, R2b, R2c, R3b, R3c, and R4) (described in Ornitz, D. M., Xu, J., Colvin, J. S., McEwen, D. G., MacArthur, C. A., Coulier, F., Gao, G. and Goldfarb, M. (1996) Receptor specificity of the fibroblast growth factor family. J Biol Chem, 271, 15292-15297.) was introduced into betaKlotho-expressing BaF3 cells, so as to obtain clones that were resistant to Puromycin and G418, thereby obtaining FGFR/betaKlotho-expressing cells. Such cells were stimulated with FGF21, and the amount of DNA synthesized was measured.
The activity of FGF21 to stimulate the DNA synthesis of BaF3 cells that had expressed each FGFR (FGFR1c, R2c, F3c, and R4) as well as betaKlotho was compared with the activity of FGF19, which was evolutionally relative to FGF21. By procedures opposite to those of Example 5, namely, an expression vector containing betaKlotho was introduced into BaF3 cells that had expressed each type of FGFR, so as to obtain Puromycin- and G418-resistant clones, thereby obtaining FGFR/betaKlotho-expressing cells. The cells were stimulated with FGF21, FGF19, and FGF1 in the presence of heparin, while changing the amounts of FGF21, FGF19, and FGF1, as shown in the figure, and the amount of DNA synthesized was then measured.

[3] = target: T2, FGFR2c/betaKlotho-expressing BaF3 cells (Mus musculus, UniProt P21803+Q99N32); experiment: DNA synthesis (thymidine incorporation) in FGFR2c/betaKlotho-expressing BaF3 cells; format: cell-based; conditions: BaF3 cells expressing FGFR2c and betaKlotho; presence of heparin
T2 construct: the entire-length cDNA of mouse betaKlotho was cloned into an animal cell expression vector; expressed in transfected cells; host or cells: BaF3 (mouse pro-B) cells
T2 sequence (P21803 22-821): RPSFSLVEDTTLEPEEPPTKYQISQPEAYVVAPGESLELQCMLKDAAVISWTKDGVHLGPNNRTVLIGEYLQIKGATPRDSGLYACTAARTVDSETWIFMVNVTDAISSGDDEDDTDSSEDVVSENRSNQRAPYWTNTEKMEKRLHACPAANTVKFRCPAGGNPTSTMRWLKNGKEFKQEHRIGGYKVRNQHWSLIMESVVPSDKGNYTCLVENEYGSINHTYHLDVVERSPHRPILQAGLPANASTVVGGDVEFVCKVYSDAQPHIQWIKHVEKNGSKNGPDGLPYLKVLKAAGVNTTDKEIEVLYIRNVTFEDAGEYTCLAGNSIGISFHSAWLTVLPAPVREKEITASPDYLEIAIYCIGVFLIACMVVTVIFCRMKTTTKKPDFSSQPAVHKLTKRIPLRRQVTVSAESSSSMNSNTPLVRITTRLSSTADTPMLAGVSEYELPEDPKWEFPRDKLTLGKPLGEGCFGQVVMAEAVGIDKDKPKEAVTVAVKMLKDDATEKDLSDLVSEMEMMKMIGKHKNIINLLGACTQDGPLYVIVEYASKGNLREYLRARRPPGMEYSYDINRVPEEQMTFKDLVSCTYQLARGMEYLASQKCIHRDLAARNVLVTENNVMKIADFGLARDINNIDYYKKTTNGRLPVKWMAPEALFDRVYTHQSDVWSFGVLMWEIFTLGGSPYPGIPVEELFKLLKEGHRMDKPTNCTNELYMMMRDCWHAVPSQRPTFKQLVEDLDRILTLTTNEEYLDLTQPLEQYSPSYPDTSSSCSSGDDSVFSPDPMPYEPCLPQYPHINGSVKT
T2 sequence (Q99N32 whole entry): as the sequence (Q99N32 whole entry) above
Method: as §1, §2
The activity of FGF21 to stimulate the DNA synthesis of BaF3 cells that had expressed each FGFR (FGFR1c, R2c, F3c, and R4) as well as betaKlotho was compared with the activity of FGF19, which was evolutionally relative to FGF21. […] The cells were stimulated with FGF21, FGF19, and FGF1 in the presence of heparin, while changing the amounts of FGF21, FGF19, and FGF1, as shown in the figure, and the amount of DNA synthesized was then measured.

[4] = target: T3, R1c/betaKlotho-expressing cells (Mus musculus, UniProt P16092+Q99N32); experiment: Phosphorylation of FRS2 and MAPK (Western blotting) in R1c/betaKlotho-expressing cells; format: cell-based; conditions: presence of heparin; 10 minutes stimulation
T3 construct: the entire-length cDNA of mouse FGFR1c had been cloned; the entire-length cDNA of mouse betaKlotho was cloned into an animal cell expression vector; expressed in transfected cells; host or cells: BaF3 (mouse pro-B) cells
T3 sequence (P16092 22-822): as the sequence (P16092 22-822) above
T3 sequence (Q99N32 whole entry): as the sequence (Q99N32 whole entry) above
Method: (§3) Each FGFR/betaKlotho-expressing cells obtained in Example 6 were stimulated with FGF, and the activated state (phosphorylated state) of a signaling molecule FRS2 (fibroblast growth factor receptor substrate 2) located downstream of FGFR, and that of MAPK (mitogen activated protein kinase; alias: ERK (extracellular signal-regulated kinase; in general, there are two types of ERKs, namely, ERK1 with a molecular weight of 44 kDa and ERK2 with a molecular weight of 42 kDa)), were analyzed. Different types of cells were stimulated with each FGF in the presence of heparin for 10 minutes, and a cell lysate was then prepared. Thereafter, the phosphorylated degree was evaluated by measuring it by a Western blotting method using a commercially available anti-phosphorylation FRS2 antibody or an anti-phosphorylation MAPK antibody.

[5] = target: T4, FGFR2c/betaKlotho-expressing cells (Mus musculus, UniProt P21803+Q99N32); experiment: Phosphorylation of FRS2 and MAPK (Western blotting) in FGFR2c/betaKlotho-expressing cells; format: cell-based; conditions: presence of heparin; 10 minutes stimulation
T4 construct: the entire-length cDNA of mouse betaKlotho was cloned into an animal cell expression vector; expressed in transfected cells; host or cells: BaF3 (mouse pro-B) cells
T4 sequence (P21803 22-821): as the sequence (P21803 22-821) above
T4 sequence (Q99N32 whole entry): as the sequence (Q99N32 whole entry) above
Method: as §3

[6] = system: R3c/betaKlotho-expressing cells; experiment: Phosphorylation of FRS2 and MAPK (Western blotting) in R3c/betaKlotho-expressing cells; format: cell-based, mouse; conditions: presence of heparin; 10 minutes stimulation
Chain of R3c/betaKlotho-expressing cells (Q61851 21-369 limits assumed): as the sequence (Q61851 21-369 limits assumed) above
Chain of R3c/betaKlotho-expressing cells (Q99N32 whole entry, further chain): as the sequence (Q99N32 whole entry) above
Method: as §3

[7] = system: FGFR4/betaKlotho-expressing cells; experiment: Phosphorylation of FRS2 and MAPK (Western blotting) in FGFR4/betaKlotho-expressing cells; format: cell-based, mouse; conditions: presence of heparin; 10 minutes stimulation
Chain of FGFR4/betaKlotho-expressing cells (Q03142 143-366 limits assumed): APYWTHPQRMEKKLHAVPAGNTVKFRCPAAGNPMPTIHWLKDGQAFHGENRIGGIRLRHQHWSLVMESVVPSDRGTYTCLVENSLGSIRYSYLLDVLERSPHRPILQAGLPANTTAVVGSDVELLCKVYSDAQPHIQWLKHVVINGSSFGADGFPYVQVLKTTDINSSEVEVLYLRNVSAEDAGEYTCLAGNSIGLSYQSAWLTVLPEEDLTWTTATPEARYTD
Chain of FGFR4/betaKlotho-expressing cells (as listed by the source): as the sequence (Q99N32 whole entry) above
Method: as §3

DNA synthesis (thymidine incorporated into the cells) [1]: reacts with all of the receptors
DNA synthesis (thymidine incorporated into the cells) [3]: reacts with all of the receptors
Molecule: FGF1: conventional FGF used as a control
DNA synthesis (thymidine incorporated into the cells) [2]: reacts with all of the receptors
phosphorylation of FRS2 and MAPK [4]: significantly increase the phosphorylation
phosphorylation of FRS2 and MAPK [5]: significantly increase the phosphorylation
phosphorylation of FRS2 and MAPK [6]: significantly increase the phosphorylation
phosphorylation of FRS2 and MAPK [7]: significantly increase the phosphorylation

DNA synthesis (thymidine incorporated into the cells) [3]: slightly react with FGFR2c
phosphorylation of FRS2 and MAPK [4]: increases the phosphorylation
B1: FGF21: fibroblast growth factor 21; mouse-derived protein used in Examples 1-7 and 10-13 (protein)
chain: AYPIPDSSPLLQFGGQVRQRYLYTDDDQDTEAHLEIREDGTVVGAAHRSPESLLELKALKPGVIQILGVKASRFLCQQPDGALYGSPHFDPEACSFRELLLEDGYNVYQSEAHGLPLRLPQKDSPNQDATSWGPVRFLPMPGLLHEPQDQAGFLPPEPPDVGSSDPLSMVEPLQGRSPSYAS
DNA synthesis (thymidine incorporated into the cells) [1]: reacted with FGF21; also recorded: dose-dependently stimulate DNA synthesis; also recorded: activates; also recorded: able to act on FGFR1c-expressing cells
DNA synthesis (thymidine incorporated into the cells) [2]: reacted with FGF21; also recorded: activates
phosphorylation of FRS2 and MAPK [5]: only in FGFR1c/betaKlotho-expressing cells and FGFR3c/betaKlotho-expressing cells
phosphorylation of FRS2 and MAPK [6]: increases the phosphorylation
phosphorylation of FRS2 and MAPK [7]: only in FGFR1c/betaKlotho-expressing cells and FGFR3c/betaKlotho-expressing cells
